Test results reported in patent publication WO2016170039A1 (dated 2016).

Molecular target: T1, human angiopoietin 2 (human, UniProt O15123 19-496, limits assumed)
T1 construct: Bought (R&D Systems Cat.No. 623-AN) or produced in house; also called ANG-2; human ANG-2
T1 sequence: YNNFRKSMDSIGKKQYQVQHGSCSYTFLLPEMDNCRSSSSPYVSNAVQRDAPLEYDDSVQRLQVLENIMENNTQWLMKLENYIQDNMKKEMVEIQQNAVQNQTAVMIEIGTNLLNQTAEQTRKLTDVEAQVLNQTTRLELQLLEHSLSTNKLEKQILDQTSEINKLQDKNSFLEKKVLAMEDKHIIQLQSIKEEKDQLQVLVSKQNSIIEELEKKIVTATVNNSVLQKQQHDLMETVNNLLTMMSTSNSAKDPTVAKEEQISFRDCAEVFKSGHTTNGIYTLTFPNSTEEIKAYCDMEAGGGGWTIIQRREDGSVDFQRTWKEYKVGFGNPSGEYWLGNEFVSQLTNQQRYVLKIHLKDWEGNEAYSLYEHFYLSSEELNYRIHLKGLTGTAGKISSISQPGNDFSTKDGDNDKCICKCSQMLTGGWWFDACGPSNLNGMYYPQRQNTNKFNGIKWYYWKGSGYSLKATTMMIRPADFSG
Assay: ANG-2/Tie2 receptor interaction ELISA; antibody pre-incubated with ANG-2; the IC50 (Table 2) is not given

B1: <ANG-2> LC06 (antibody, IgG1, V domains shown)
VH: not shown
VL: QPGLTQPPSVSVAPGQTARITCGGNNIGSKSVHWYQQKPGQAPVLVVYDDSDRPSGIPERFSGSNSGNTATLTISRVEAGDEADYYCQVWDSSSDHYVFGTGTKVTVLG
B1: binds.
